Literature values in patent publication US20100183645A1, “ACTIVE OR PASSIVE IMMUNIZATION AGAINST PROAPOPTOTIC NEUROTROPHINS FOR THE TREATMENT AND/OR PREVENTION OF NEURODEGENERATIVE DISEASES” (INSTITUT PASTEUR, priority 2003, published 2010).
No end group written: not given here.

Target: T1, p75NTR (Homo sapiens, UniProt P08138)
T1 sequence (P08138 29-427): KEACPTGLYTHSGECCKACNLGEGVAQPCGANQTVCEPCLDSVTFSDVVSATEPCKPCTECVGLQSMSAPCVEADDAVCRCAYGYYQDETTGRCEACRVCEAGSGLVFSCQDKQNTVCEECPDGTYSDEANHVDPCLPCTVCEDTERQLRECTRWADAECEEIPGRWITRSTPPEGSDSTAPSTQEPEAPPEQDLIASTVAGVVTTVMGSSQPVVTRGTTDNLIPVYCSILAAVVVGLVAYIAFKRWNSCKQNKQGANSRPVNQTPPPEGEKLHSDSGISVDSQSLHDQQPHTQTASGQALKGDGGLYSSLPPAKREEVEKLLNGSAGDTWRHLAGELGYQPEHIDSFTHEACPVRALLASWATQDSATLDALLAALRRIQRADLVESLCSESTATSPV
Settings: Beglova et al, 2000; Saragovi et al, 2000, 2002; cited from earlier work

## short cyclic peptide derived from an exposed loop of mature NGF (residues C30-C35): short cyclic peptide from an exposed loop of mature NGF, involved in NGF-p75NTR interactions (DIKGKE; also: cyclic peptide, ring closure not given here; UniProt P01139 151-156, looked up, fragment)
  Blocking of neurotrophin binding to p75NTR: specifically block
